Results as given in US20030167476A1.
pKi: −log10 of the molar value.

What was measured:
[1] = target: OR2, RASSL derived from the human kappa opioid receptor (human); test: cell-based or functional assay
[2] = target: OR1, RASSL derived from the human kappa opioid receptor (human); test: cell-based or functional assay
[3] = target: OR2, RASSL derived from the human kappa opioid receptor (human); test: binding to the receptor expressed in COS-7 and CHO-KI cells; Ki, method only 'as previously described'
[4] = target: OR1, RASSL derived from the human kappa opioid receptor (human); test: as above

## Dynorphin A (from UniProt P01213 207-223) (peptide)
[1]
  EC50, signaling (activation of G protein-mediated signal): 1080 nM
[2]
  EC50, signaling (activation of G protein-mediated signal): 61 nM
[3]
  pKi: 6.90
[4]
  pKi: 7.83
